The experiment concerns the target mutant pro-urokinase (human) (UniProt P00749). As to the kind of experiment: cell-based or functional assay.

Take “mixture of human MMP2 and MMP9, not activated”: the not activated MMP (ΔA/h^2*1000); time 0 h, 0.15 µM modified pro-urokinase is < 0.05 ΔA/h^2·1000; the not activated MMP (ΔA/h^2*1000); time 1 h was < 0.05 ΔA/h^2·1000; the not activated MMP (ΔA/h^2*1000); time 2 h was < 0.05 ΔA/h^2·1000; the not activated MMP (ΔA/h^2*1000); time 3 h is < 0.05 ΔA/h^2·1000. For the same substance, the not activated MMP (ΔA/h^2*1000); time 4 h is < 0.05 ΔA/h^2·1000, the not activated MMP (ΔA/h^2*1000); time 6.5 h was < 0.05 ΔA/h^2·1000, the not activated MMP (ΔA/h^2*1000); time 24 h was 1 ΔA/h^2·1000 and the not activated MMP (ΔA/h^2*1000); time 31 h is 2.1 ΔA/h^2·1000. The not activated MMP (ΔA/h^2*1000); time 48 h was 14 ΔA/h^2·1000 and the not activated MMP (ΔA/h^2*1000); time 48 h + EDTA is < 0.05 ΔA/h^2·1000.

Regarding “mixture of human MMP2 and MMP9, activated with APMA”, the activated MMP (ΔA/h^2*1000); time 0 h, 0.15 µM modified pro-urokinase was < 0.05 ΔA/h^2·1000; the activated MMP (ΔA/h^2*1000); time 1 h was 0.3 ΔA/h^2·1000; the activated MMP (ΔA/h^2*1000); time 2 h was < 0.05 ΔA/h^2·1000; the activated MMP (ΔA/h^2*1000); time 3 h is < 0.05 ΔA/h^2·1000. Also, the activated MMP (ΔA/h^2*1000); time 4 h was 1.1 ΔA/h^2·1000, the activated MMP (ΔA/h^2*1000); time 6.5 h is 1.3 ΔA/h^2·1000, the activated MMP (ΔA/h^2*1000); time 24 h is 3.6 ΔA/h^2·1000 and the activated MMP (ΔA/h^2*1000); time 31 h was 35.9 ΔA/h^2·1000. For the same substance, the activated MMP (ΔA/h^2*1000); time 48 h was 48.9 ΔA/h^2·1000 and the activated MMP (ΔA/h^2*1000); time 48 h + EDTA was < 0.05 ΔA/h^2·1000.

The values are drawn from patent publication EP0691409B1.
